Source: PMC2927720

What was measured:
[1] = target: rGrh (Grainyhead, full-length recombinant) (UniProt P13002-2 1-1032); assay: EMSA
[2] = target: rZld (Zelda, full-length recombinant) (UniProt Q9VWC6 1-1596); assay: EMSA
rZld (Zelda, full-length recombinant), sequence (Q9VWC6 whole entry): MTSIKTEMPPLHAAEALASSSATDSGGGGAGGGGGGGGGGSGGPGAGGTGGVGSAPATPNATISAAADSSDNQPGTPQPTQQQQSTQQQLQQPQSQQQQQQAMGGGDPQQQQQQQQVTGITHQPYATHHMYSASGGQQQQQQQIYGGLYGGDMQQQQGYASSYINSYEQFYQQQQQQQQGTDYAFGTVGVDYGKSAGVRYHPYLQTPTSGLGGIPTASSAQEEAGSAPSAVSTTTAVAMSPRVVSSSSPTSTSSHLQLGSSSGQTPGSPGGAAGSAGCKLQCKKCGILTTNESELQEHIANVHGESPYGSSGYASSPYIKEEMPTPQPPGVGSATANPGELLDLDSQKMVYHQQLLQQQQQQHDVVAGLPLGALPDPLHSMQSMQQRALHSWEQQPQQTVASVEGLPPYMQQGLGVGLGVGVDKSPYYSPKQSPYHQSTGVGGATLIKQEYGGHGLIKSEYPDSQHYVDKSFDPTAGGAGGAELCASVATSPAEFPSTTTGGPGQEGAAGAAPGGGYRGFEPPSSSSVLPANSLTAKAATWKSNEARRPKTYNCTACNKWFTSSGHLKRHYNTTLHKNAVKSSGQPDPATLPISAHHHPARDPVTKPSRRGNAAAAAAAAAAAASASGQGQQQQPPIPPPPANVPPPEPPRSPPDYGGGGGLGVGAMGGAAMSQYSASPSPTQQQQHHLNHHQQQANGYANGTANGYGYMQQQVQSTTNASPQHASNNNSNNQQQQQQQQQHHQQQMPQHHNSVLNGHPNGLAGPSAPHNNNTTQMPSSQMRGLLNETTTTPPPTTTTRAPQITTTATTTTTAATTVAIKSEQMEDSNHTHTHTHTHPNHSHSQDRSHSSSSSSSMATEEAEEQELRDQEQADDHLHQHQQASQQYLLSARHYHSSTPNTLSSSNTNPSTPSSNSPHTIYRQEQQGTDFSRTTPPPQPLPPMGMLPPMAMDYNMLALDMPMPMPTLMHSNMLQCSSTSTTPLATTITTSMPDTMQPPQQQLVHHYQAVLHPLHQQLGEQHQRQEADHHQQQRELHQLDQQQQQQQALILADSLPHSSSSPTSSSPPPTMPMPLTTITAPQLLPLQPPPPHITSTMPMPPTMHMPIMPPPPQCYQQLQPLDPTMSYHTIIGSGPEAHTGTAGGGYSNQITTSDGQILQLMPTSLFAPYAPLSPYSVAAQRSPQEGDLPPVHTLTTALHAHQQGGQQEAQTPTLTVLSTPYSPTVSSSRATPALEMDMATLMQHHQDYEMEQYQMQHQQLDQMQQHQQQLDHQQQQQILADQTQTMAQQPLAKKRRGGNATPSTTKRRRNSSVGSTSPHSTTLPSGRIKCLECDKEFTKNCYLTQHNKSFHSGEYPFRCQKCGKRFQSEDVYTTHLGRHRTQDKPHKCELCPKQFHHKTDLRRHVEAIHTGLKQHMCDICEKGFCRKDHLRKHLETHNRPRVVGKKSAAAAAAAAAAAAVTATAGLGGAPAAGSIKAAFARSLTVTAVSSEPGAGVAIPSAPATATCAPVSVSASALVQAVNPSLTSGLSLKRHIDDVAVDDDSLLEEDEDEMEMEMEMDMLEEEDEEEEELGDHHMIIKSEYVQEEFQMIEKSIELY

Row | Binder | binding result [1] | binding result [2]
1 | CAGGTAG probe (dsDNA) DNA 1: CTATTCAGGTAGACACTGTA DNA 2: TACAGTGTCTACCTGAATAG | binds | binds
2 | CAGGCAG probe (dsDNA) DNA 1: CTATTCAGGCAGACACTGTA DNA 2: TACAGTGTCTGCCTGAATAG | binds | 
